Data from IntAct's records for PubMed 29039417.

B1: Protein PTHB1 (Homo sapiens), Q3SYG4 (parent)
chain: MSLFKARDWWSTILGDKEEFDQGCLCLANVDNSGNGQDKIIVGSFMGYLRIFSPHPAKTGDGAQAEDLLLEVDLRDPVLQVEVGKFVSGTEMLHLAVLHSRKLCVYSVSGTLGNVEHGNQCQMKLMYEHNLQRTACNMTYGSFGGVKGRDLICIQSMDGMLMVFEQESYAFGRFLPGFLLPGPLAYSSRTDSFLTVSSCQQVESYKYQVLAFATDADKRQETEQQKLGSGKRLVVDWTLNIGEQALDICIVSFNQSASSVFVLGERNFFCLKDNGQIRFMKKLDWSPSCFLPYCSVSEGTINTLIGNHNNMLHIYQDVTLKWATQLPHIPVAVRVGCLHDLKGVIVTLSDDGHLQCSYLGTDPSLFQAPNVQSRELNYDELDVEMKELQKIIKDVNKSQGVWPMTEREDDLNVSVVVSPNFDSVSQATDVEVGTDLVPSVTVKVTLQNRVILQKAKLSVYVQPPLELTCDQFTFEFMTPDLTRTVSFSVYLKRSYTPSELEGNAVVSYSRPTDRNPDGIPRVIQCKFRLPLKLICLPGQPSKTASHKITIDTNKSPVSLLSLFPGFASQSDDDQVNVMGFHFLGGARITVLASKTSQRYRIQSEQFEDLWLITNELILRLQEYFEKQGVKDFACSFSGSIPLQEYFELIDHHFELRINGEKLEELLSERAVQFRAIQRRLLARFKDKTPAPLQHLDTLLDGTYKQVIALADAVEENQGNLFQSFTRLKSATHLVILLIALWQKLSADQVAILEAAFLPLQEDTQELGWEETVDAAISHLLKTCLSKSSKEQALNLNSQLNIPKDTSQLKKHITLLCDRLSKGGRLCLSTDAAAPQTMVMPGGCTTIPESDLEERSVEQDSTELFTNHRHLTAETPRPEVSPLQGVSE
partner: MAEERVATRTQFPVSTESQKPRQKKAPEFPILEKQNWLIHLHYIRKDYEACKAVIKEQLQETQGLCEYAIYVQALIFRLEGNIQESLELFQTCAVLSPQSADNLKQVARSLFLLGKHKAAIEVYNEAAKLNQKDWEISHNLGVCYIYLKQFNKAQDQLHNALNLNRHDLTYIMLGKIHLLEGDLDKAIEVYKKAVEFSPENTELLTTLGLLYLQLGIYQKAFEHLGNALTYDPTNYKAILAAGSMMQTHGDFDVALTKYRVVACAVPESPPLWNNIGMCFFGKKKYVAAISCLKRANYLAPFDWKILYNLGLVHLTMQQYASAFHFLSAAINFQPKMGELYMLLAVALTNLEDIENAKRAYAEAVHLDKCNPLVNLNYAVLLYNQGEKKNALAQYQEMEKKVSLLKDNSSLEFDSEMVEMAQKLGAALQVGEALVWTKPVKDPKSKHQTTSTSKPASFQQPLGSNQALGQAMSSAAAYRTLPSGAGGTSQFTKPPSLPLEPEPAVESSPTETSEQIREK

Variants of: B1
Details: with bbs4_human BBS4, Q96RK4

Variant | effect of a mutation on the interaction
Y490E | with no effect
Y490K | with no effect
Y490A | with no effect
R483A | with no effect
R483E | with no effect
R483K | with no effect
T482K | with no effect
T482A | with no effect
T482E | with no effect
V489A | with no effect
V489E | with no effect
V489K | with no effect
S486R | disrupting interaction strength
S486A | with no effect
S486E | with no effect
S486K | with no effect
F487K | with no effect
F487S | disrupting interaction strength
F487A | with no effect

Variant | effect of a mutation on the interaction
F487E | with no effect
S494A | with no effect
R493E | with no effect
R493K | with no effect
R493A | with no effect
L491K | with no effect
L491A | with no effect
L491E | with no effect
S488K | with no effect
S488E | with no effect
S488A | with no effect
T484K | with no effect
T484A | with no effect
T484E | with no effect
V485E | with no effect
V485K | with no effect
V485A | with no effect
K492E | with no effect
K492A | with no effect

Results, then the variant that gave them:

effect of a mutation on the interaction | Variant
with no effect | T512E
with no effect | T512A
with no effect | R510E
with no effect | R510K
with no effect | R510A
with no effect | E501K
with no effect | E501A
with no effect | E499K
with no effect | E499A
with no effect | A504K
with no effect | A504E
with no effect | Y495A
with no effect | Y495E
with no effect | Y495K
with no effect | G502A
with no effect | G502E
with no effect | G502K
disrupting interaction strength | G502R
with no effect | P497A
with no effect | P497K
with no effect | P497E
with no effect | S507A
with no effect | S507E
with no effect | S507K
with no effect | T496A
with no effect | T496E
with no effect | T496K

effect of a mutation on the interaction | Variant
with no effect | S494K
with no effect | S494E
with no effect | S509K
disrupting interaction strength | S509P
with no effect | S509A
with no effect | S509E
with no effect | P511E
with no effect | P511A
with no effect | P511K
with no effect | V505K
with no effect | V505E
with no effect | V505A
with no effect | L500A
with no effect | L500E
with no effect | L500K
with no effect | S498A
with no effect | S498E
with no effect | S498K
with no effect | V506K
with no effect | V506A
disrupting interaction strength | V506E
with no effect | Y508K
with no effect | Y508E
with no effect | Y508A
with no effect | N503K
with no effect | N503A
with no effect | N503E
